Experimental data as given in patent US20130137628A1.

Target: ATP-binding cassette transporter A1 (ABCA1) on RAW 264.7 murine macrophage cells (murine) (UniProt P41233)
Assay: cell-based or functional assay

Chain of UniProt P41233 (P41233 whole entry): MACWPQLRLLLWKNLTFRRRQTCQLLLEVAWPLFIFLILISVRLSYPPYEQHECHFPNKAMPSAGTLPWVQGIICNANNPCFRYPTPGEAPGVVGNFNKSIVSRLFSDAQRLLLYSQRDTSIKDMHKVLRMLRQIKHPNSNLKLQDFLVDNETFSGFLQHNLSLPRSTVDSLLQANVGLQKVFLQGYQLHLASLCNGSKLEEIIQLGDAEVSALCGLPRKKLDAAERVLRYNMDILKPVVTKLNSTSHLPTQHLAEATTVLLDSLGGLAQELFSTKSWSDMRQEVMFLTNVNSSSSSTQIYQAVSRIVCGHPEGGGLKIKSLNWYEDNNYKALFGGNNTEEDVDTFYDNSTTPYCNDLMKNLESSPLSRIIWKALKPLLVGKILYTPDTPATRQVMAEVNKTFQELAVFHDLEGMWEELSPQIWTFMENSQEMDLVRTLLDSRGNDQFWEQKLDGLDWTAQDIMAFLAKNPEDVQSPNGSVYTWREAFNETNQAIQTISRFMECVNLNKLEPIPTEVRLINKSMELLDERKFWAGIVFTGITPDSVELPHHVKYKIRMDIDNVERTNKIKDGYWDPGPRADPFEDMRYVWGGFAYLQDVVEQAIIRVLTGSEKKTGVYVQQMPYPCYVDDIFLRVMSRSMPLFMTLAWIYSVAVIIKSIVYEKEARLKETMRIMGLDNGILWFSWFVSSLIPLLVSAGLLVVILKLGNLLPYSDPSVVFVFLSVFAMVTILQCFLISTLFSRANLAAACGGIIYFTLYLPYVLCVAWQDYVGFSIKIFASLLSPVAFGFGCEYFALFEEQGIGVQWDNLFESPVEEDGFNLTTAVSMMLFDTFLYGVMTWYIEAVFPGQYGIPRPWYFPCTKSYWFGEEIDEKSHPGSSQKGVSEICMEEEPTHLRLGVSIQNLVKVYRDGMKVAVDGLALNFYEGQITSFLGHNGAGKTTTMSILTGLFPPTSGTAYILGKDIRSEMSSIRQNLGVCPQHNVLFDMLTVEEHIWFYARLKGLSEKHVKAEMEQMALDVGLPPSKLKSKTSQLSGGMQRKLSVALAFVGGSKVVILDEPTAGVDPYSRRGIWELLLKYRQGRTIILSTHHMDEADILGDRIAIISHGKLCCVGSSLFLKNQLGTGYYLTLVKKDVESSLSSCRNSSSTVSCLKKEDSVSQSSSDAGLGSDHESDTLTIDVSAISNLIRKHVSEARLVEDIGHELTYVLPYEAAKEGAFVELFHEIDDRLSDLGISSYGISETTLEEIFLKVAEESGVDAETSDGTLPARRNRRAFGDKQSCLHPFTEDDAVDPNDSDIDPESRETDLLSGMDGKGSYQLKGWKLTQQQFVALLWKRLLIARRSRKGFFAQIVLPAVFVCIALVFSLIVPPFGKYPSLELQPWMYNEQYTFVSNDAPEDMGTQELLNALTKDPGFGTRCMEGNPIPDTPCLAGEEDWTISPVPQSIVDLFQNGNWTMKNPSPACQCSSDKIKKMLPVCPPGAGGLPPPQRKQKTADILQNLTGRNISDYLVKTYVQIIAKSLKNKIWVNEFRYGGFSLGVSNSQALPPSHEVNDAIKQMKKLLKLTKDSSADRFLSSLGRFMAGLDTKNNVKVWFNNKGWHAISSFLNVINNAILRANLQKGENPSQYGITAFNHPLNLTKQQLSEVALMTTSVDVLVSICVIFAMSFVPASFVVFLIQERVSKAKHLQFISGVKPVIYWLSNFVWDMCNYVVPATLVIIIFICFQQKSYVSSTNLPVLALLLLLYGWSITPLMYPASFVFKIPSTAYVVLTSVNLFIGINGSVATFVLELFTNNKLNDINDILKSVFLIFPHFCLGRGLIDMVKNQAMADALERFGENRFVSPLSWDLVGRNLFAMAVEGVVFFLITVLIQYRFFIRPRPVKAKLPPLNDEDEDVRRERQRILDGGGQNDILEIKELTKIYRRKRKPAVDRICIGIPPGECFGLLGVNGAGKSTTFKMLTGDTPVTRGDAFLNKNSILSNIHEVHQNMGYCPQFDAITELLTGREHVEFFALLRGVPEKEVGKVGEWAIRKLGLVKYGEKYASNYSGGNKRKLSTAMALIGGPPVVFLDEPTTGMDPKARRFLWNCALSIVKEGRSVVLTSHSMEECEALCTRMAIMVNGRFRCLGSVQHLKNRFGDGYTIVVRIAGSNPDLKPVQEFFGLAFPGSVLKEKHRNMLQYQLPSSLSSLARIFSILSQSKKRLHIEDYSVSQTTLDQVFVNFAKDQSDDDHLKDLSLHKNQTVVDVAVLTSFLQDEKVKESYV

## recombinant wild type ApoA1 after MPO/HOCl-mediated oxidative damage (from UniProt P02647 25-267)
  ABCA-1-dependent cholesterol efflux ability (reduction upon MPO/HOCl-mediated oxidative damage), RAW 264.7 cells, [3H]-cholesterol: 75 to 80%
